Results published in patent publication US20030082187A1.

How the values were obtained:
[1] = target: murine VCAM-1 (vascular endothelial adhesion molecule-1) (murine) (UniProt P29533); experiment: cell-based or functional assay
[2] = target: murine VCAM-1 (vascular endothelial adhesion molecule-1) (murine) (UniProt P29533); experiment: bEnd.3 cells, unstimulated against IL-1α-stimulated

UniProt P29533, sequence (P29533 25-739): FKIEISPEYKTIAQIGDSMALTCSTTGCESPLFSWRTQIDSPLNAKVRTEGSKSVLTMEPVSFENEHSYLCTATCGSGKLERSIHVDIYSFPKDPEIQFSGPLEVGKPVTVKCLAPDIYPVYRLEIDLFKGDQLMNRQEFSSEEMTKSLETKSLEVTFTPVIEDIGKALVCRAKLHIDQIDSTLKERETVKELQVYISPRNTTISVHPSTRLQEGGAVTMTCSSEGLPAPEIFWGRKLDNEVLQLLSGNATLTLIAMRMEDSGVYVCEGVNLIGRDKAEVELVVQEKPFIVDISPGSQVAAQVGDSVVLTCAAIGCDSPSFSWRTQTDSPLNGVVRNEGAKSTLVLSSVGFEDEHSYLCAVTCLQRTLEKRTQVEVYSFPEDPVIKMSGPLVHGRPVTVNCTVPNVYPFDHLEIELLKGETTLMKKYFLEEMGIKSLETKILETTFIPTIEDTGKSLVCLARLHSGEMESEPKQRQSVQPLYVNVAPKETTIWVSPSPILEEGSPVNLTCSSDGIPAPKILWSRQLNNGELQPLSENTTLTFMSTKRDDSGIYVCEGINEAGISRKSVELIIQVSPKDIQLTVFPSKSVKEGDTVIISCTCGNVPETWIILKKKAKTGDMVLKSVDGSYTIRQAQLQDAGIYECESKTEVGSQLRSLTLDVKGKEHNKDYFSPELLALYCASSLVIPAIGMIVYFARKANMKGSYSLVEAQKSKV

Substance | Generation of Factor Xa (intact cells, IL-1α) (ng per 10^4 cells per 60 min) [1] | Generation of Factor Xa (intact cells, control/unstimulated) (ng per 10^4 cells per 60 min) [1] | Generation of Factor Xa (permeabilized cells, IL-1α) (ng per 10^4 cells per 60 min) [1] | Generation of Factor Xa (permeabilized cells, control/unstimulated) (ng per 10^4 cells per 60 min) [1] | percent lower amount bound to unstimulated versus stimulated cells [2] [%]
anti-VCAM-1·tTF coaguligand (MK2.7 anti-VCAM-1 IgG covalently linked to truncated tissue factor) (from UniProt P13726 33-251) | 3.17 | 1.64 | 98.8 | 49.2 | 50
control IgG·tTF (R187) coaguligand (from UniProt P13726 33-251) | – | 0.26 | – | 0.41 | –
truncated tissue factor (tTF), unconjugated (from UniProt P13726 33-251) | – | 0.26 | – | 0.39 | –
